Results: patent publication US20220195418

Target: T7 RNAP PACE variant L2-108.2 (mutations only in figure) (bacteriophage T7) (UniProt P00573)
Test: cell_activity
Conditions: lacZ reporter; relative to starting RNAP on T7 promoter

Sequence | activity [%]
TAATACGACTCACTATA (double strand) [T7 promoter] | 100
AATTAACCCTCACTAAA (double strand) [T3 promoter] | 270
